Measured values: article PMC5007552

Conditions: phosphorylation at S486

SGK3: AZD8055 (mTOR catalytic inhibitor, 0.1 uM, 1 h)
enzymatic_activity: decreases
